From patent US20180036395A1, “DOSAGE AND ADMINISTRATION OF MONOSPECIFIC AND BISPECIFIC ANTI-IGR-1R AND ANTI-ERBB3 ANTIBODIES” (Merrimack Pharmaceuticals, Inc., priority 2012, published 2018)

Assays:
[1] = test system: Caki-1 renal cell carcinoma cancer cells; test: Caki-1 renal cell carcinoma xenograft study; type: in vivo, human
Protocol: (§1) The y-axis represents mean tumor volume in mm^3 and the x-axis represents time in days.
For each of the xenograft studies below, cells are resuspended 1:1 with PBS:Growth factor-reduced Matrigel® and injected subcutaneously into Nu/Nu mice. Tumors are allowed to develop for 8 days. Antibodies are injected intraperitoneally every 3 days (q3d) at the indicated doses/mouse. Tumor lengths and widths are measured twice a week manually by caliper, and tumor volume calculated using the following formula: π/6(L×W^2). Each arm of a study contains 10 animals. All studies are carried out using methods approved by an internal IACUC panel. […]

BxPC-3 tumors = test: BxPC-3 xenograft pharmacodynamic (PD) study, western blotting of tumor lysates; type: in vivo, human; conditions: BxPC-3 PD study tumors
Protocol: BxPC-3 mouse xenograft models are established using 5×10^6 BxPC-3 cells that are resuspended 1:1 with PBS:Growth factor-reduced Matrigel® and injected subcutaneously into Nu/Nu mice. Tumors are allowed to develop for 8 days. Antibodies are injected intraperitoneally every 3 days (q3d) for 2 rounds of dosing.
For the BxPC-3 PD study, 4 treatment groups are established, each containing 4 mice. These included control, P4-G1-M1.3 (q3d, 600 μg), gemcitabine (q3d, 150 mg/kg) and P4-G1-M1.3+gemcitabine (combined individual doses). Tumors are excised on either day 19 or day 28, resulting in a total of 8 groups.
Tumors are initially weighed and pulverized in a CryoPrep® tissue pulverizer (Covaris). Tissue Extraction Reagent 1 (TER1, Life Technologies™) containing protease and phosphatase inhibitors was added to the tumor at a ratio of lml TER1 per 100 mg of tissue. Samples are incubated on ice for 30 minutes to solubilize tissue and put through a QIAshredder™ column (Qiagen) according to the manufacturer's protocol. A BCA assay (Pierce) is performed to determine protein concentration according to the manufacturer's protocol.
Buffer containing β-Mercaptoethanol (β-ME) is added and lysates are boiled for 5 minutes at 95° C. Approximately 40 μg of protein and two ladders (Invitrogen) are run on each well of an 18-well gel (BioRad). Gels are run at 150 volts constant for approximately 90 minutes and transferred to nitrocellulose membranes using the 8 minute transfer program of the iBlot® (Invitrogen) transfer system. Membranes are blocked in Odyssey® Blocking Buffer (Licor® Biosciences) for 1 hour at room temperature, and then incubated with primary antibodies overnight at 4° C. in 5% BSA in TBS-T. All antibodies are purchased from Cell Signaling and used at the recommended dilution. The following day membranes are washed 3×5 minutes each with TBS-T and then incubated with anti-Rabbit IgG—DyLight® 800 (Cell Signaling) or anti-Rabbit IRDye® 800 (Licor® Biosciences) at 1:10,000-15,000 in 5% milk in TBS-T for 1 hour at room temperature. Membranes were then washed 3×5 minutes each with TBS-T and scanned using the Licor® Odyssey® system (Licor® Biosciences). Intensities are quantified using Image Studio 2.0 and normalized to β-Actin levels.
Using BxPC-3 xenografts, mice with control tumors were compared to those treated with monotherapy with P4-G1-M1.3, monotherapy with gemcitabine or combination therapy with P4-G1-M1.3 and gemcitabine.

BxPC-3 cells = test: In vitro signaling ELISA, KRAS wild-type cells; type: cell-based, human; conditions: combination 500 nM P4-G1-M1.3 + 250 nM GSK1120212, 24 hours, 10% serum, FIG. 3
Protocol: (§2) Cells were treated with 500 nM P4-G1-M1.3, 250 nM GSK1120212 or the combination for 24 hours in 10% serum and ELISA assays were performed. The data was normalized to 10% serum without treatment.
(§3) The preclinical models to support this example are performed using BxPC-3 (KRAS wild-type) and KP4 (KRAS mutant) cell lines.

KP4 cells = test: In vitro signaling ELISA, KRAS mutant cells; type: cell-based, human; conditions: combination 500 nM P4-G1-M1.3 + 250 nM GSK1120212, 24 hours, 10% serum, FIG. 3
Protocol: as §2, §3

[2] = test system: DU145 prostate cancer cells; test: DU145 prostate cancer xenograft study; type: in vivo, human; conditions: combination of docetaxel (10mpk q7d) and P4-G1-M1.3 (30mpk, q3d); FIG. 4
Protocol: as §1
For each of the xenograft studies below, cells are resuspended 1:1 with PBS:Growth factor-reduced Matrigel® and injected subcutaneously into Nu/Nu mice. Tumors are allowed to develop for 8 days. Antibodies are injected intraperitoneally every 3 days (q3d) at the indicated doses/mouse. Tumor lengths and widths are measured twice a week manually by caliper, and tumor volume calculated using the following formula: π/6(L×W^2). Each arm of a study contains 10 animals. All studies are carried out using methods approved by an internal IACUC panel.
Statistical significance across groups was determined using the student's T-test (*,p<0.05 vs control.; #,p<0.05 vs docetaxel; a,p<0.05 vs P4-G1-M1.3).

[3] = test system: gastrointestinal neuroendocrine tumors; test: Treatment of patients with gastrointestinal neuroendocrine tumors; type: in vivo, human
Protocol: (§4) P4-G1-M1.3 is formulated in 20 mM histidine, 100 mM arginine-HCl, 3% sucrose, at pH 5.5 supplemented with 0.002-0.02% of Tween® 80 at concentration range 5-15 mg/mL. P4-G1-M1.3 is administered to patients at 6 mg/kg, 12 mg/kg, 20 mg/kg, 30 mg/kg, 40 mg/kg, 50 mg/kg or 60 mg/kg q7d, ql4d, q21d, or q28d with a loading dose of 12 mg/kg, 20 mg/kg, 40 mg/kg, 40 mg/kg or 60 mg/kg Everolimus is administered to patients at 2.5 mg, 5 mg, or 10 mg orally once a day or once every other day.
Patients with gastrointestinal neuroendocrine tumors are treated by administration of either monotherapy with an effective amount of everolimus or an effective amount of P4-G1-M1.3, or with combination therapy comprising or consisting of administration of both the effective amount of everolimus and the effective amount of P4-G1-M1.3. P4-G1-M1.3 and everolimus are prepared and dosed as described in Example 1.
Patients with gastrointestinal neuroendocrine tumors are treated by administration of either monotherapy with an effective amount of mTOR inhibitor temsirolimus (Torisel®) or an effective amount of P4-G1-M1.3, or with combination therapy comprising or consisting of administration of both the effective amount of temsirolimus and the effective amount of P4-G1-M1.3. P4-G1-M1.3 is prepared and dosed as described in Example 1. Temsirolimus is dosed at 2.5 mg, 7.5 mg, 15 mg, or 25 mg (25 mg is the manufacturer's recommended dose) infused over a 30-60 minute period once a week.
Patients with gastrointestinal neuroendocrine tumors are treated by administration of either monotherapy with an effective amount of mTOR inhibitor sirolimus (Rapamune®) or an effective amount of P4-G1-M1.3, or with combination therapy comprising or consisting of administration of both the effective amount of sirolimus and the effective amount of P4-G1-M1.3. P4-G1-M1.3 is prepared and dosed as described in Example 1.

pancreatic carcinoma = test: Treatment of patients with pancreatic cancer; type: in vivo, human
Protocol: as §4
Patients with pancreatic carcinoma are treated with a combination of an effective amount of gemcitabine, cytarabine, capecitabine, or 5-fluorouracil (5-FU) and an effective amount of P4-G1-M1.3. Patients are dosed with P4-G1-M1.3 as described in Example 1. Patients are dosed with the manufacturer's recommended dose of gemcitabine, capecitabine or 5-FU.
Patients with pancreatic cancer (KRAS wild-type and KRAS mutant) are treated with a combination of an effective amount of a MEK inhibitor (e.g., GSK1120212, BAY 86-9766 or AZD6244) and an effective amount of P4-G1-M1.3. Patients are dosed with P4-G1-M1.3 as described in Example 1. The clinical dose of MEK inhibitor is the dose used for that inhibitor in phase II or phase III clinical trials.

B1: P4-G1-M1.3: anti-IGF-1R+anti-ErbB3 polyvalent bispecific antibody, IgG1-(scFv)2 (SEQ ID NO:148 and SEQ ID NO:149) (protein)
chain 1: EVQLLQSGGGLVQPGGSLRLSCAASGFLFSSYPMHWVRQAPGKGLEWVGSISPSGGATPYADSVKGRFTISRDNSKNTLYLQMNSLRPEDTAVYYCAKDFYNILTGNAFDKWGQGTSVTVSSASTGGGGSGGGGSGGGGSGGGGSDIQLTQSPSSLSASLGDRVTITCRASQGISSYLAWYQQKPGKAPKLLIYAGSTPQSGVPSRFSGSGSGTEFTLTISSLQPEDSGTYYCQQYWTWPLTFGGGTKVEIKRT
chain 2: EVQLVESGGGLVQPGRSLRLSCAASGFTFDDYAMHWVRQAPGKGLEWVSGISWNSGSTGYADSVKGRFTISRDNAKNSLYLQMNSLRAEDTALYYCARDLGYNQWLEGFDYWGQGTLVTVSSASTGGGGSGGGGSGGGGSGGGGSSSELTQDPAVSVALGQTVRITCQGDSLRSYYASWYQQKPGQAPVLVIYGKNNRPSGIPDRFSGSSSGNTASLTITGAQAEDEADYYCMSRDHPGNQWVFGGGTKVTVLG
modifications: Synthetic polypeptide:Anti-IGF-1R scFvs M76; Synthetic polypeptide:Anti-ErbB3 scFvs P6L
With B1 the “response to everolimus (tumor growth)” value ([1]; Caki-1 xenograft in Nu/Nu mice, 3mpk everolimus+500 μg P4-G1-M1.3, FIG. 1) was “potentiates responses to everolimus”, the “tumor growth (mean tumor volume)” value ([1]; Caki-1 xenograft in Nu/Nu mice, P4-G1-M1.3 at 500, 300, or 100 μg, FIG. 1) was “suppresses tumor growth” and the tumor growth ([1]; Caki-1 xenograft, Example 12) was “suppresses tumor growth”. For the same molecule, the response to sirolimus ([1]; Caki-1 xenograft, combination with sirolimus) was “potentiates responses to sirolimus”, the ERK phosphorylation (BxPC-3 tumors; FIG. 2H) was “inhibits ERK phosphorylation” and the “apoptosis-inducing activity of gemcitabine (survivin)” value (BxPC-3 tumors; P4-G1-M1.3 600 μg + gemcitabine 150 mg/kg q3d, FIG. 2H) was “potentiates apoptosis-inducing activity of gemcitabine”. For the same molecule, the “level of receptor complexes (IGF-1R, Insulin Receptor, EGFR, ErbB3, ErbB2)” value (BxPC-3 tumors; P4-G1-M1.3 q3d 600 μg, FIG. 2A-2C) was “downregulates receptor complexes”, the “PI3K/AKT/mTOR signaling (phospho-AKT, phospho-FoxO, phospho-PDK1, phospho-mTOR, phospho-S6, pRAS40, p4EB-PB1)” value (BxPC-3 tumors; P4-G1-M1.3 q3d 600 μg, FIG. 2D-2G, 2I, 2J) was “inhibits PI3K/AKT/mTOR signaling” and the “signaling (pAkt Ser473, pERK)” value (BxPC-3 cells) was “inhibition of signaling”. The “signaling (pAkt Ser473, pERK)” value (KP4 cells) was “inhibition of signaling”, the “growth of DU145 prostate cancer cells in vivo (mean tumor volume)” value [2] was “inhibition of growth” and the treatment outcome ([3]; everolimus + P4-G1-M1.3) was “combinatorially enhanced outcome”. The treatment outcome ([3]; sirolimus + P4-G1-M1.3) was “combinatorially enhanced outcome”, the treatment outcome ([3]; temsirolimus + P4-G1-M1.3) was “combinatorially enhanced outcome” and the treatment outcome (pancreatic carcinoma; pancreatic cancer (KRAS wild-type and KRAS mutant), MEK inhibitor (GSK1120212, BAY 86-9766 or AZD6244) + P4-G1-M1.3) was “combinatorially enhanced outcome”. For the same molecule, the treatment outcome (pancreatic carcinoma; patients with pancreatic carcinoma, gemcitabine, cytarabine, capecitabine, or 5-fluorouracil + P4-G1-M1.3) was “combinatorially enhanced outcome”.
